{"source": "patent US20110033875A1", "about": "(UNIVERSITY OF GEORGIA RESEARCH FOUNDATION, published 2011)", "molecules": {"B1": {"name": "Aleuria aurantia lectin, biotinylated (other, UniProt P18891 2-313, looked up)", "chain": "PTEFLYTSKIAAISWAATGGRQQRVYFQDLNGKIREAQRGGDNPWTGGSSQNVIGEAKLFSPLAAVTWKSAQGIQIRVYCVNKDNILSEFVYDGSKWITGQLGSVGVKVGSNSKLAALQWGGSESAPPNIRVYYQKSNGSGSSIHEYVWSGKWTAGASFGSTVPGTGIGATAIGPGRLRIYYQATDNKIREHCWDSNSWYVGGFSASASAGVSIAAISWGSTPNIRVYWQKGREELYEAAYGGSWNTPGQIKDASRPTPSLPDTFIAANSSGNIDISVFFQASGVSLQQWQWISGKGWSIGAVVPTGTPAGW", "modifications": "biotinylated", "notes": "Commercial fungal lectin; also called AAL"}, "B2": {"name": "Phaseolus vulgaris erythroagglutinin (erythroagglutinating phytohemagglutinin), biotinylated (other, Phaseolus vulgaris (red kidney bean), UniProt P05088 22-275, looked up)", "chain": "ASQTSFSFQRFNETNLILQRDATVSSKGQLRLTNVNDNGEPTLSSLGRAFYSAPIQIWDNTTGAVAASPTSFTFNIDVPNNSGPADGLAFVLLPVGSQPKDKGGLLGLFNNYKYDSNAHTVAVEFDTLYNVHWDPKPRHIGIDVNSIKSIKTTTWDFVKGENAEVLITYDSSTKLLVASLVYPSLKTSFIVSDTVDLKSVLPEWVIVGFTATTGITKGNVETNDILSWSFASKLSDGTTSEALNLANFALNQIL", "modifications": "biotinylated", "notes": "also called E-PHA; EPHA"}}, "key": {"[1]": {"molecular_target": "glycoproteins from mouse endometrioid ovarian tumors nonadherent to Con A", "experiment": "lectin blot of Con A-unbound mouse tissue glycoproteins with biotinylated E-PHA, densitometry (FIG. 11A lanes 3 and 4)"}, "[2]": {"molecular_target": "proteins of human ductal invasive breast carcinoma tissue (cases 10406, 10119, 11827, 2417, 2207)", "experiment": "L-PHA binding to breast tumor tissue proteins, case 2207; scale not defined"}, "[3]": {"molecular_target": "proteins of human ductal invasive breast carcinoma tissue (cases 10406, 10119, 11827, 2417, 2207)", "experiment": "L-PHA binding to breast tumor tissue proteins, case 2417; scale not defined"}, "[4]": {"molecular_target": "proteins of human ductal invasive breast carcinoma tissue (cases 10406, 10119, 11827, 2417, 2207)", "experiment": "L-PHA binding to breast tumor tissue proteins, case 10119; scale not defined"}, "[5]": {"molecular_target": "proteins of human ductal invasive breast carcinoma tissue (cases 10406, 10119, 11827, 2417, 2207)", "experiment": "L-PHA binding to breast tumor tissue proteins, case 10406; scale not defined"}, "[6]": {"molecular_target": "proteins of human ductal invasive breast carcinoma tissue (cases 10406, 10119, 11827, 2417, 2207)", "experiment": "L-PHA binding to breast tumor tissue proteins, case 11827; scale not defined"}, "[7]": {"molecular_target": "T1, Glucose-regulated protein 78 immunoprecipitated from human ovarian cancer tissue (human, UniProt P11021 19-654)", "T1 construct": "also called GRP78", "T1 sequence (P11021 19-654 limits assumed)": "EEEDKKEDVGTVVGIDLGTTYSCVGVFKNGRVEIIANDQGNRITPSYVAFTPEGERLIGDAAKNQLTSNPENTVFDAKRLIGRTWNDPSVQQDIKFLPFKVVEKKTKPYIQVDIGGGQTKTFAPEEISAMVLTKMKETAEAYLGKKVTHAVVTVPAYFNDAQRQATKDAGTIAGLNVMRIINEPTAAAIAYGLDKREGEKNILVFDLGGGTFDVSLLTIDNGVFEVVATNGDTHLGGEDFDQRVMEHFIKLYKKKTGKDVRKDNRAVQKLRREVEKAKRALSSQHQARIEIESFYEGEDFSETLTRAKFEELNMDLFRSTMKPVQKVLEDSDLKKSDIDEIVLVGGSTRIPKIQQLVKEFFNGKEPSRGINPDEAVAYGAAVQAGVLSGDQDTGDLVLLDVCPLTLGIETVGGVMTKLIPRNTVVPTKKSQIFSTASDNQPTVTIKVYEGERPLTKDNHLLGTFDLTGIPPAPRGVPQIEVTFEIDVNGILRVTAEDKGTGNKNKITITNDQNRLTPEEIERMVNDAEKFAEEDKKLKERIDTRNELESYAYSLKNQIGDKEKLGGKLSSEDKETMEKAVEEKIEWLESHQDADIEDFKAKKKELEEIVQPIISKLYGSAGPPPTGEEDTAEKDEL", "experiment": "GRP78 immunoprecipitated from ovarian cancer tissue, SDS-PAGE, lectin blot"}, "[8]": {"molecular_target": "T2, Thrombospondin 1 from serum and tissue of ovarian cancer patients (human, UniProt P07996 19-1170, limits assumed, core fucosylated N-linked glycans (inferred from AAL reactivity))", "T2 construct": "also called THBS1; AAL-reactive THBS1", "T2 sequence (P07996 19-1170 limits assumed)": "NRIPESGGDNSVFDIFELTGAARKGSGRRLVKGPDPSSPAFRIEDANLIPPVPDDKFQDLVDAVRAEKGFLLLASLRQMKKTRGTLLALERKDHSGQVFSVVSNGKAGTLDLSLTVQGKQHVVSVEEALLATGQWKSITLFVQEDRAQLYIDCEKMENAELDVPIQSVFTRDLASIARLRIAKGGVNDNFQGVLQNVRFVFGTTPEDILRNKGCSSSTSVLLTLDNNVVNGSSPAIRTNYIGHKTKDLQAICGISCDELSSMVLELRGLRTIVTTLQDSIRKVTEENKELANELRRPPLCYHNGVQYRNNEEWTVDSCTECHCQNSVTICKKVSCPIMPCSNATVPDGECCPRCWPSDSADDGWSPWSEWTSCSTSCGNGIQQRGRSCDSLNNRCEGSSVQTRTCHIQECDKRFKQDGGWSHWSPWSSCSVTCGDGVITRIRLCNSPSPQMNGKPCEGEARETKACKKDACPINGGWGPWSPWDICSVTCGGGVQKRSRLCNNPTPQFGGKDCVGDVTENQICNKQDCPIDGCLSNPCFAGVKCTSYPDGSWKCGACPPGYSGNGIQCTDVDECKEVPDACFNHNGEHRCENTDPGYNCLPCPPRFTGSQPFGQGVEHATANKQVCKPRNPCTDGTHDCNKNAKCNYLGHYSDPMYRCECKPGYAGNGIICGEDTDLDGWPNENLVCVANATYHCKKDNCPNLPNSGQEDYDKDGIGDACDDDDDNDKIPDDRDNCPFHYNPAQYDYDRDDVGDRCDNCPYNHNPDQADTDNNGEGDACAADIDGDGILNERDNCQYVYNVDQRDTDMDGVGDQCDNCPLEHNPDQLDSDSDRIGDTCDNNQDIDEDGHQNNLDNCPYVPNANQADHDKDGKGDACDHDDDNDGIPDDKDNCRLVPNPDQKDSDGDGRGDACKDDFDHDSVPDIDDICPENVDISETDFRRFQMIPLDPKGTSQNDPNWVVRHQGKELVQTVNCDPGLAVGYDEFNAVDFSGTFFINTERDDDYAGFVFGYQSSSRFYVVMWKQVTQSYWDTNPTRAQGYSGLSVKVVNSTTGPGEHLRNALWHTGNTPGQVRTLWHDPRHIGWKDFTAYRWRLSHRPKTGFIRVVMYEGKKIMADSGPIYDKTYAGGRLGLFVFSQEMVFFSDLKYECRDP", "experiment": "biotinylated AAL precipitation from serum, Western blot with anti-THBS1 (FIG. 19B panel 2)"}, "[9]": {"molecular_target": "glycoproteins from human endometrioid ovarian tumors (cases 711, 741, 471) nonadherent to Con A", "experiment": "lectin blot of Con A-unbound glycoproteins, human case 471, biotinylated AAL, densitometry (FIG. 11B lane 4)"}}}
{"molecule": "Phaseolus vulgaris erythroagglutinin (erythroagglutinating phytohemagglutinin), biotinylated (from UniProt P05088 22-275)", "values": [{"measurement": "level of E-PHA binding for tumor relative to normal (x relative to normal)", "setting": "[1]", "value": 0.2}]}
{"molecule": "Phaseolus vulgaris leukoagglutinin (leukoagglutinating phytohemagglutinin), biotinylated (from UniProt P05087 21-272)", "values": [{"measurement": "L-PHA Level", "setting": "[2]", "value": 9}, {"measurement": "L-PHA Level", "setting": "[3]", "value": 10}, {"measurement": "L-PHA Level", "setting": "[4]", "value": 4}, {"measurement": "L-PHA Level", "setting": "[5]", "value": 1}, {"measurement": "L-PHA Level", "setting": "[6]", "value": 4}]}
{"molecule": "B1", "values": [{"measurement": "binding result", "setting": "[7]", "value": "no binding"}, {"measurement": "binding result", "setting": "[8]", "value": "binds"}, {"measurement": "fold increase in the level of AAL binding relative to normal", "setting": "[9]", "value": 7, "unit": "fold"}]}
{"molecule": "B2", "values": [{"measurement": "binding result", "setting": "[7]", "value": "no binding"}]}
